Test results as given in paper PMC8281026, “Peptide Based Inhibitors of Protein Binding to the Mitogen-Activated Protein Kinase Docking Groove” (Frontiers in Molecular Biosciences, 2021).
Primed or numbered codes have the meaning given here. The star is where a group is joined. Dabcyl′ = 4-((4-(dimethylamino)phenyl)azo)benzoyl, CN(C)c1ccc(/N=N/c2ccc(C(=O)*)cc2)cc1

Assays:
p38α = target: T1, p38α (UniProt Q16539 1-360); assay: fluorescence polarisation; competitive: complex of the MAPK with 50 nM Cf-RHDF at 60-80% complex formation titrated with increasing unlabeled peptide; 20 mM Tris pH 8.0, 100 mM NaCl, 0.05% Brij35, 2 mM TCEP; 384-well black plates; triplicates; constants are called Kd in Table 1 and Ki in the methods; conditions: both partners purified
T1 construct: The in vitro activity assay used active, phosphorylated pp-p38α (1 nM); source: recombinantly expressed in Escherichia coli, purified according to Garai et al

ERK2 = target: T2, ERK2 (UniProt P28482 1-360); assay: as above; conditions: both partners purified
T2 construct: The in vitro activity assay used active, phosphorylated pp-ERK2 (1 nM); also called extracellular signal-regulated kinase 2; MAPK; source: recombinantly expressed in Escherichia coli, purified according to Garai et al
T2 sequence (P28482 whole entry): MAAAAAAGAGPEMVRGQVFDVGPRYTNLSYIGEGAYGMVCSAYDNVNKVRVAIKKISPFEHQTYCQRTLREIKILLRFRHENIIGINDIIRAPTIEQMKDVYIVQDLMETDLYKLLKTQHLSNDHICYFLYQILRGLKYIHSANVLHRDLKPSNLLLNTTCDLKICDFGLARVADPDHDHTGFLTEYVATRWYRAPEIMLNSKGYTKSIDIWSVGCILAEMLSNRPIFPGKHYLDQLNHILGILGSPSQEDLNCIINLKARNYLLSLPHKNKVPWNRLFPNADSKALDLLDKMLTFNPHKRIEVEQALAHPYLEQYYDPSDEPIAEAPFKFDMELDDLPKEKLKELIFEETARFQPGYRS

T1 sequence (Q16539 whole entry): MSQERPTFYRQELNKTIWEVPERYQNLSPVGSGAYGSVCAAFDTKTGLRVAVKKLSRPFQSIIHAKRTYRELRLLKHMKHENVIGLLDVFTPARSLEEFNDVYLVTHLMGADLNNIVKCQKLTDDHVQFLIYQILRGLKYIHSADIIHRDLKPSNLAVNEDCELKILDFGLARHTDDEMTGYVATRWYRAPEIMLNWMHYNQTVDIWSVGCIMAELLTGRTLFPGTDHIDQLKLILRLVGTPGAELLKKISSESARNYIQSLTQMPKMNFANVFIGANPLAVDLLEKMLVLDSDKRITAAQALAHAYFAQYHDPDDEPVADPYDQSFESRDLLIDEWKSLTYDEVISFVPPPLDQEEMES

B1: Dabcyl-RRRPPWLRLDIRRK-NH2 (peptide 10) (peptide)
peptide: {Dabcyl′}-RRRPPWLRLDIRRK-NH2
SMILES: CC[C@H](C)[C@H](NC(=O)[C@H](CC(=O)O)NC(=O)[C@H](CC(C)C)NC(=O)[C@H](CCCNC(=N)N)NC(=O)[C@H](CC(C)C)NC(=O)[C@H](Cc1c[nH]c2ccccc12)NC(=O)[C@@H]1CCCN1C(=O)[C@@H]1CCCN1C(=O)[C@H](CCCNC(=N)N)NC(=O)[C@H](CCCNC(=N)N)NC(=O)[C@H](CCCNC(=N)N)NC(=O)c1ccc(/N=N/c2ccc(N(C)C)cc2)cc1)C(=O)N[C@@H](CCCNC(=N)N)C(=O)N[C@@H](CCCNC(=N)N)C(=O)N[C@@H](CCCCN)C(N)=O
notes: peptide 8 with a Lys at the C-terminus and a Dabcyl group on the N-terminus; also called Dabcyl-containing peptide (unlabelled); source: synthetic peptide (Fmoc/tBu solid phase on Rink-amide MBHA resin, RP-HPLC purified)
- Kd (p38α): 1 µM
- Kd (ERK2): 4.6 µM

B2: H-KKPPWLKLDI-NH2 (peptide 4) (peptide)
peptide: H-KKPPWLKLDI-NH2
notes: RHDF1 docking motif without the flanking regions SLQR (N-terminus) and PS (C-terminus); also called short peptide; truncated construct; source: synthetic peptide (Fmoc/tBu solid phase on Rink-amide MBHA resin, RP-HPLC purified)
- Kd (ERK2): 15 µM

B3: H-RRRPPWLRLDIRR-NH2 (peptide 8) (peptide)
peptide: H-RRRPPWLRLDIRR-NH2
notes: peptide 6 with one more Arg at the N-terminus; source: synthetic peptide (Fmoc/tBu solid phase on Rink-amide MBHA resin, RP-HPLC purified)
- Kd (p38α): 1.4 µM
- Kd (ERK2): 1.3 µM

B4: H-SLQRKKPPWLKLDIPSC-NH2 (peptide 1, RHDF1 linear binding motif) (peptide)
peptide: H-SLQRKKPPWLKLDIPSC-NH2
notes: C-terminal cysteine that follows the 16 residues of the motif in the printed peptide; not part of the motif as printed in the text; The added Cys probably serves for conjugation (cysteine containing peptides were joined to chloroacetylated peptides); also called original peptide; source: synthetic peptide (Fmoc/tBu solid phase on Rink-amide MBHA resin, RP-HPLC purified)
- Kd (p38α): 1.1 µM
- Kd (ERK2): 1.8 µM

B5: H-RRPPWLRLDIRR-NH2 (peptide 6) (peptide)
peptide: H-RRPPWLRLDIRR-NH2
notes: peptide 5 extended at the C-terminus by two Arg; source: synthetic peptide (Fmoc/tBu solid phase on Rink-amide MBHA resin, RP-HPLC purified)
- Kd (ERK2): 5.2 µM

B6: H-RRPPWLRLDI-NH2 (peptide 5) (peptide)
peptide: H-RRPPWLRLDI-NH2
notes: source: synthetic peptide (Fmoc/tBu solid phase on Rink-amide MBHA resin, RP-HPLC purified)
- Kd (p38α): 10 µM
- Kd (ERK2): 19.5 µM
